Test results: article PMC5650360, “Maslinic acid promotes autophagy by disrupting the interaction between Bcl2 and Beclin1 in rat pheochromocytoma PC12 cells” (Oncotarget, 2017)

Target: T1, rat Beclin1 BH3 domain and Coiled Coil domain (residues 100-266) (rat, UniProt Q91XJ1 100-266)
T1 construct: Beclin1, rat, BH3 domain and coiled coil domain, residues 100-266; Cloned in a modified pET32 vector with a human rhinovirus 3C protease site and without thioredoxin; source: E. coli BL21 (DE3), purified (HisTrap HP, 3C cleavage, Superdex 75)
Assay: ITC; 200 μM Beclin1 injected (2 μl aliquots) into 200 μl of 20 μM Bcl2, 50 mM Tris pH 8.0, 150 mM NaCl, Auto-iTC200, without MA
Conditions: both partners purified

T1 sequence (Q91XJ1 100-266): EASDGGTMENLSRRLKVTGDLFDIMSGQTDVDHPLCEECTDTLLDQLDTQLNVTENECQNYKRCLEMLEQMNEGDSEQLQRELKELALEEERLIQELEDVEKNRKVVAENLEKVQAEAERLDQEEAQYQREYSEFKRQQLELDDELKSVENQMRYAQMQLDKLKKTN

B1: BH3 motif containing region of rat Bcl2 (residues 1-156), un-tagged version (domain or fragment, UniProt P49950 1-156, looked up)
chain: MAQAGRTGYDNREIVMKYIHYKLSQRGYEWDTGDEDSAPLRAAPTPGIFSFQPESNRTPAVHRDTAARTSPLRPLVANAGPALSPVPPVVHLTLRRAGDDFSRRYRRDFAEMSSQLHLTPFTARGRFATVVEELFRDGVNWGRIVAFFEFGGVMCV
notes: Bcl2, rat, BH3 motif containing region, residues 1-156; Cloned as a GST fusion in a modified pET32 vector with a 3C protease site
B1 showed a Kd of roughly 7.3 µM.
